Measured values from US20100298213A1, “Pharmaceutically Active Insulin Receptor-Modulating Molecules” (Novo Nordisk A/S, priority 2004, published 2010).
Square brackets hold non-standard residues; d marks the D form. Ends that are not written are not given here. Dip = N[C@H](C(=O)O)C(c1ccccc1)c1ccccc1; Orn = NCCC[C@H](N)C(=O)O; Aib = CC(C)(N)C(=O)O

Tests used:
human IR (HIR) = human IR (HIR) (Homo sapiens, UniProt P06213); assay: Human IR affinity (Kd); type: binding; conditions: Kd value expressed relative to that of human insulin in the same assay
[1] = target: insulin receptor on mouse adipocytes (mouse, UniProt P15208 28-1372); assay: cell-based or functional assay
Chain of insulin receptor on mouse adipocytes (P15208 28-1372): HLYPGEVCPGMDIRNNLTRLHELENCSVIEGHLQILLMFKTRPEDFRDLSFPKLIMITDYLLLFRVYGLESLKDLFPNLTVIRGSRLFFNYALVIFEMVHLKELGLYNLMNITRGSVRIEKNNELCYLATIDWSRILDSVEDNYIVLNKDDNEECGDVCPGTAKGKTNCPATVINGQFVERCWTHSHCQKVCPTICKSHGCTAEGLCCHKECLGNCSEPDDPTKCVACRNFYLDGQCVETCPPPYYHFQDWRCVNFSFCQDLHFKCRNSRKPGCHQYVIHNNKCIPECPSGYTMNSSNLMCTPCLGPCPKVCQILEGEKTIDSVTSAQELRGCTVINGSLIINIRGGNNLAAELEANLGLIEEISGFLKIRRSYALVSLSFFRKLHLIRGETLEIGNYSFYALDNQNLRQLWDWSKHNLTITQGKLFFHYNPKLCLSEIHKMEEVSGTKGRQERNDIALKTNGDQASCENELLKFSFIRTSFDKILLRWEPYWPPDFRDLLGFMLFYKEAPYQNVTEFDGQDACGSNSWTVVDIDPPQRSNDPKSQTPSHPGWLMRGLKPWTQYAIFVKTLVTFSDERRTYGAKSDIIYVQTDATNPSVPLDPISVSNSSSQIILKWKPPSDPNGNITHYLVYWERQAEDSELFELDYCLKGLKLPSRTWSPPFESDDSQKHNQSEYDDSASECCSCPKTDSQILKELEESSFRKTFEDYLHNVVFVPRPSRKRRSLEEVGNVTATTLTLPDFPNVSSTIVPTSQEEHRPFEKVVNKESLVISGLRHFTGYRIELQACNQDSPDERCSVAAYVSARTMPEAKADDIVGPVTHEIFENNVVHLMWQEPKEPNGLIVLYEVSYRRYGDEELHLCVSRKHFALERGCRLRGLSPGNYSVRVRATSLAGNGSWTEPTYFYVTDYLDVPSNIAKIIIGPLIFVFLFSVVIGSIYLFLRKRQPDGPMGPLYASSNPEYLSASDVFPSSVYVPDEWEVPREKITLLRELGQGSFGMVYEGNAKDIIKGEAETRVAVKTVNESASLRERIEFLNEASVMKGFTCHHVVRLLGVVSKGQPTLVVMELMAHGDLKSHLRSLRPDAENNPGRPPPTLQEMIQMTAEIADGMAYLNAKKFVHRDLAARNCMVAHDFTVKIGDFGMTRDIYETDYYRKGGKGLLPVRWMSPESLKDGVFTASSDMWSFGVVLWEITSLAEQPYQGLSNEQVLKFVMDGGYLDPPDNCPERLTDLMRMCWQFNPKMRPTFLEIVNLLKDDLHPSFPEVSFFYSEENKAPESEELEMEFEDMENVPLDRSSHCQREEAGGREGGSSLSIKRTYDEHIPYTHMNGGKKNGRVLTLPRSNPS

Chain of human IR (HIR) (P06213 28-758 limits assumed): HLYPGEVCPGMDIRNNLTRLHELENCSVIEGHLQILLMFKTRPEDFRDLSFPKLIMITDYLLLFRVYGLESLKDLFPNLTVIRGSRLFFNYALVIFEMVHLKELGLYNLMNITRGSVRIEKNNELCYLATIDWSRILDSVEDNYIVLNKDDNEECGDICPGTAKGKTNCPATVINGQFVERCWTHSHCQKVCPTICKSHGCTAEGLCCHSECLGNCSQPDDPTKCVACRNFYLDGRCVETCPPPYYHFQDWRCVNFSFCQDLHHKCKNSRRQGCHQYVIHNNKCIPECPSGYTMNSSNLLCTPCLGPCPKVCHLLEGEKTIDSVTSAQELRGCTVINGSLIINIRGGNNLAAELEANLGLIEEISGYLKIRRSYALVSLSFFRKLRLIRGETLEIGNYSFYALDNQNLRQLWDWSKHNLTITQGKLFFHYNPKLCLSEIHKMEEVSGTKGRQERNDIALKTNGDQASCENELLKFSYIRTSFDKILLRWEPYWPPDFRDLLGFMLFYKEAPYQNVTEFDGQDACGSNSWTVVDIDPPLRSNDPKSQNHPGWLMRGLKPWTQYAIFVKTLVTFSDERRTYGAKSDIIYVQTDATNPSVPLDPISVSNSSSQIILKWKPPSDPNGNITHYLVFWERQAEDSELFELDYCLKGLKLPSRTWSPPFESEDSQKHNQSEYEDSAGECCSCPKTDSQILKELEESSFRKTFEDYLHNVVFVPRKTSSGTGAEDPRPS
Chain of human IR (HIR) (P06213 763-1382 partner limits assumed): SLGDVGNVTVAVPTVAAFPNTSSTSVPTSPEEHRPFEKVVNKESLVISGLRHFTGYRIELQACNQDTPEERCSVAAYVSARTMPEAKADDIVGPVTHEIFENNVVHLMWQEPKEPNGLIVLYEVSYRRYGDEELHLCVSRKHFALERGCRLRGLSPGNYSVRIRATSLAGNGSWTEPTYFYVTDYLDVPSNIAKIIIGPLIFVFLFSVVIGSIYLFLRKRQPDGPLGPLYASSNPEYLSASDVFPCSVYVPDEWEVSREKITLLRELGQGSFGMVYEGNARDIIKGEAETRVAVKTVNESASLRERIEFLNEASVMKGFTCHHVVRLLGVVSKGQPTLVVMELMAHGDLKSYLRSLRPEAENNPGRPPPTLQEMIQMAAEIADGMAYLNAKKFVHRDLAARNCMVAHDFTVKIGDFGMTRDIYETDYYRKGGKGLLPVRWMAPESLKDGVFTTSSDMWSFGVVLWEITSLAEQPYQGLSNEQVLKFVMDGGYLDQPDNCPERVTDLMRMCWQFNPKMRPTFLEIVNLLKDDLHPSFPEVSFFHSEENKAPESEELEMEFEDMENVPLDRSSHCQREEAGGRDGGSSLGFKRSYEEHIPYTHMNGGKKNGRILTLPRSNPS

Molecule: SLEHEWAQIQCEVWGRGCPSEPFYGWFERQLG [compound 800]
- Kd (HIR) rel. to HI (human IR (HIR)): 07%

Molecule: Ac-SLE-Aib-EW-Aib-QIQCEVWGRPCPSEP-Dip-YGWFHEQLGPP [compound 874]
- Kd (HIR) rel. to HI (human IR (HIR)): 8%

Molecule: Ac-SLEEEWAQIQCEVWGRGCPK(ε-carboxyfluorescein)ESFYGWFERQLG [compound 871]
- Kd (HIR) rel. to HI (human IR (HIR)): 4%

Molecule: Ac-SLEHEW[Aib]QIQCEVWGRPCPSEP[Dip]YGWFHEQLGPP (cysteine pairing not given here) [compound 872]
- Kd (HIR) rel. to HI (human IR (HIR)): 6%

Molecule: Ac-SLEEEWAQIQCEVWGRGC-pox-FYGWFERQLG [compound 802]
- Kd (HIR) rel. to HI (human IR (HIR)): 6%

Molecule: SLEHEWAQIQCEVWGRGCPSEPFYGWFLAQLG [compound 799]
- Kd (HIR) rel. to HI (human IR (HIR)): 4%

Molecule: Ac-SLEEEWAQIQCEVWG[Orn]GCPSESFYGWFERQLG (cysteine pairing not given here) [compound 805]
- Kd (HIR) rel. to HI (human IR (HIR)): 24%

Molecule: Ac-SLE-Aib-EW-Aib-QIQCEVWGRGC-pox-FYGWFE-Aib-QLG [compound 806]
- Kd (HIR) rel. to HI (human IR (HIR)): 3%

Molecule: Ac-SLEEEW[Aib]QIQCEVWGRGCPSESFYDWFERQL (cysteine pairing not given here) [compound 875]
- Kd (HIR) rel. to HI (human IR (HIR)): 12%

Molecule: Ac-SLEHEWAQIHCEVYGRGCPSESFYHWFERQL (cysteine pairing not given here) [674]
- EC50 (FFC) [1]: 230 nM

Molecule: HLEEEWSEIQCELWGRGCPSEDFYDWFEAQLHA [617]
- EC50 (FFC) [1]: 3.9 nM
- EC50 (FFC) rel. to HI [1]: 1%

Molecule: Ac-SLEEEWAQIQCEVWGRGCPSGGSTFEDYLHNVVFVPRPS (cysteine pairing not given here) [658]
- EC50 (FFC) [1]: ~1000 nM

Molecule: Ac-SLEEEWAQVECEVYGRGCPSESFYDWFERQL (cysteine pairing not given here) [699]
- EC50 (FFC) [1]: 4.3 nM
- EC50 (FFC) rel. to HI [1]: 1.5%

Molecule: Ac-SLEEEWAQIQCEVWGRGCQRPEPFYDWFAEQLDD (cysteine pairing not given here) [655]
- EC50 (FFC) [1]: 0.63 nM
- EC50 (FFC) rel. to HI [1]: 8.7%

Molecule: Ac-SLEEEWAQIECEVYGRGCPSESFYHWFERQL (cysteine pairing not given here) [S665]
- EC50 (FFC) [1]: 1.9 nM
- EC50 (FFC) rel. to HI [1]: 3.4%

Molecule: HQLEEEWQAIQCELWGRGCPSEDFYDWFEAQLHA [616]
- EC50 (FFC) [1]: 1.5 nM
- EC50 (FFC) rel. to HI [1]: 4%

Molecule: HELEEEWKRIECELWGRGCPSEDFYDWFEAQLHA [618]
- EC50 (FFC) [1]: 4.6 nM
- EC50 (FFC) rel. to HI [1]: 1%

Molecule: Ac-SLEEEWAQIQCELWGRGCPSESFYDWFERQL (cysteine pairing not given here) [643]
- EC50 (FFC) [1]: 0.097 nM
- EC50 (FFC) rel. to HI [1]: 57%

Molecule: Ac-SLEEEWAQIECEVYGRGCPSEGFYNAIELLS (cysteine pairing not given here) [637]
- EC50 (FFC) [1]: 39 nM
- EC50 (FFC) rel. to HI [1]: 0.1%

Molecule: GSLDESFYDWFERQLGKKY [670]
- EC50 (FFC) [1]: 850 nM

Molecule: Ac-HLEEEWSEIQCELWGRGCPSEDFYDWFEAQLHA (cysteine pairing not given here) [620]
- EC50 (FFC) [1]: 69 nM
- EC50 (FFC) rel. to HI [1]: 1%

Molecule: Ac-SLEEEWAQIQCEVWGRGCPSESFYGWFQAQL (cysteine pairing not given here) [668]
- EC50 (FFC) [1]: 2.3 nM
- EC50 (FFC) rel. to HI [1]: 2.8%

Molecule: SLEEEWAQVECEVYGRCPSESFYDWFERQL [682]
- EC50 (FFC) [1]: 7.7 nM
- EC50 (FFC) rel. to HI [1]: 0.8%

Molecule: YEEESFYGWFERQLGEE [732]
- EC50 (FFC) [1]: > 2000 nM

Molecule: Ac-SLEEEWAQIQCEVWGRGCQRPEPFYDWFERQL (cysteine pairing not given here) [S642]
- EC50 (FFC) [1]: 0.14 nM
- EC50 (FFC) rel. to HI [1]: 39%

Molecule: SLEEEWAQIEAEVWGRGAPPSESFYDWFERQLGY [649]
- EC50 (FFC) [1]: 14 nM
- EC50 (FFC) rel. to HI [1]: 0.4%

Molecule: Ac-SLEEEWAQIQCEVWGRGCPSESFYDWFEAQLHA (cysteine pairing not given here) [634]
- EC50 (FFC) [1]: 0.083 nM
- EC50 (FFC) rel. to HI [1]: 66%

Molecule: SLEEHWAQVECEVYGRGCPSESFYDWFERQL [680]
- EC50 (FFC) [1]: 16 nM
- EC50 (FFC) rel. to HI [1]: 0.4%

Molecule: SLEEYWAQVECEVYGRGCPSESFYDWFERQL [689]
- EC50 (FFC) [1]: 15 nM
- EC50 (FFC) rel. to HI [1]: 0.4%

Molecule: SLEEEWAQVECEVYGRHCPSESFYDWFERQL [692]
- EC50 (FFC) [1]: 7.7 nM
- EC50 (FFC) rel. to HI [1]: 0.8%

Molecule: SLEEEWGQVECEVYGRGCPSESFYDWFERQL [681]
- EC50 (FFC) [1]: 13 nM
- EC50 (FFC) rel. to HI [1]: 0.4%

Molecule: SLEEVWAQVECEVYGRGCPSESFYDWFERQL [690]
- EC50 (FFC) [1]: 16 nM
- EC50 (FFC) rel. to HI [1]: 0.4%

Molecule: SLEEEWAQVECEVYGRVCPSESFYDWFERQL [693]
- EC50 (FFC) [1]: 75 nM
- EC50 (FFC) rel. to HI [1]: 0.1%

Molecule: SLEEEWYQVECEVYGRGCPSESFYDWFERQL [691]
- EC50 (FFC) [1]: 25 nM
- EC50 (FFC) rel. to HI [1]: 0.3%

Molecule: SLEEHWHQVECEVYGRGCPSESFYDWFERQL [697]
- EC50 (FFC) [1]: 72 nM
- EC50 (FFC) rel. to HI [1]: 0.1%

Molecule: SLEEEWAQVECEVYGRFCPSESFYDWFERQL [694]
- EC50 (FFC) [1]: 26 nM
- EC50 (FFC) rel. to HI [1]: 0.3%

Molecule: SLEEEWAQVECEVYGRNCPSESFYDWFERQL [683]
- EC50 (FFC) [1]: 2.1 nM
- EC50 (FFC) rel. to HI [1]: 2.9%

Molecule: SLEEEWAQHECEVYGRGCPSESFYDWFERQL [688]
- EC50 (FFC) [1]: 680 nM

Molecule: SLEEEWAQVECEVYHRGCPSESFYDWFERQL [695]
- EC50 (FFC) [1]: 9.8 nM
- EC50 (FFC) rel. to HI [1]: 0.6%

Molecule: SLEEEWAQVECEVYQRGCPSESFYDWFERQL [684]
- EC50 (FFC) [1]: 15 nM
- EC50 (FFC) rel. to HI [1]: 0.4%

Molecule: SLEEHWHQVECEVYHRHCPSESFYDWFERQL [698]
- EC50 (FFC) [1]: 190 nM
- EC50 (FFC) rel. to HI [1]: 0.03%

Molecule: Ac-HGLEEEWAQIQCEVWGRGCPSESFYDWFEAQLHA (cysteine pairing not given here) [639]
- EC50 (FFC) [1]: 0.78 nM
- EC50 (FFC) rel. to HI [1]: 5%

Molecule: Ac-SLEEEWAQIQAEVWGRGAPSESFYDWFERQL [672]
- EC50 (FFC) [1]: 25 nM
- EC50 (FFC) rel. to HI [1]: 0.3%

Molecule: Ac-SLEEEWAQIQCEVWGRGCPSEAFYDWFHEQLDD (cysteine pairing not given here) [662]
- EC50 (FFC) [1]: 2 nM
- EC50 (FFC) rel. to HI [1]: 3.3%
